The test system of series [1] is HeLa Kyoto. The experiment in a line: solubility change mitosis vs G1/S (difference of NP-40 vs SDS log2 ratios) (log2 ratio difference); higher = more soluble in mitosis.
The test system of series [2] is HeLa Kyoto. The experiment in a line: melting temperature (median over replicates), in situ; higher = more thermally stable.
The test system of series [3] is HeLa Kyoto. Kind of series: thermal stability score vs G1/S (z-score of summed log2 fold changes over temperatures); higher = more thermally stable than in G1/S.
The test system of series [4] is HeLa Kyoto. Kind of series: solubility in G1/S (NP-40 vs SDS abundance) (log2 ratio); higher = more soluble. To be noted: cell cycle stage: G1/S.
The mark [5] stands for this setting: cell cycle stage: early G1 (4.5 h after nocodazole release).
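Throughout, for melting temperature (median over replicates), in situ: HeLa Kyoto cells synchronized by double thymidine or nocodazole block, proteins quantified by TMT10plex mass spectrometry, three independent biological replicates.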
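Throughout, for solubility change mitosis vs G1/S (difference of NP-40 vs SDS log2 ratios): synchronized HeLa Kyoto cells (double thymidine block for G1/S, nocodazole release for mitosis), protein amounts in NP-40 versus SDS lysates quantified by mass spectrometry, three biological replicates.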
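Throughout, for solubility in G1/S (NP-40 vs SDS abundance): HeLa Kyoto cells arrested at G1/S by double thymidine block, proteins quantified by TMT10plex mass spectrometry in mild NP-40 versus SDS extracts, three biological replicates.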
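Throughout, for thermal stability score vs G1/S (z-score of summed log2 fold changes over temperatures): synchronized HeLa Kyoto cells, proteins quantified by TMT10plex mass spectrometry, three biological replicates, mitosis taken 0.5 h after nocodazole release, G1/S directly after double thymidine block.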

For “MEKLHQCYWKSGEPQSDDIEASRMKRAAAKHLIERYYHQLTEGCGNEACTNEFCASCPTFLRMDNNAAAIKALELYKINAKLCDPHPSKKGASSAYLENSKGAPNNSCSEIKMNKKGARIDFKDVTYLTEEKVYEILELCREREDYSPLIRVIGRVFSSAEALVQSFRKVKQHTKEELKSLQAKDEDKDEDEKEKAACSAAAMEEDSEASSSRIGDSSQGDNNLQKLGPDDVSVDIDAIRRVYTRLLSNEKIETAFLNALVYLSPNVECDLTYHNVYSRDPNYLNLFIIVMENRNLHSPEYLEMALPLFCKAMSKLPLAAQGKLIRLWSKYNADQIRRMMETFQQLITYKVISNEFNSRNLVNDDDAIVAASKCLKMVYYANVVGGEVDTNHNEEDDEEPIPESSELTLQELLGEERRNKKGPRVDPLETELGVKTLDCRKPLIPFEEFINEPLNEVLEMDKDYTFFKVETENKFSFMTCPFILNAVTKNLGLYYDNRIRMYSERRITVLYSLVQGQQLNPYLRLKVRRDHIIDDALVRLEMIAMENPADLKKQLYVEFEGEQGVDEGGVSKEFFQLVVEEIFNPDIGMFTYDESTKLFWFNPSSFETEGQFTLIGIVLGLAIYNNCILDVHFPMVVYRKLMGKKGTFRDLGDSHPVLYQSLKDLLEYEGNVEDDMMITFQISQTDLFGNPMMYDLKENGDKIPITNENRKEFVNLYSDYILNKSVEKQFKAFRRGFHMVTNESPLKYLFRPEEIELLICGSRNLDFQALEETTEYDGGYTRDSVLIREFWEIVHSFTDEQKRLFLQFTTGTDRAPVGGLGKLKMIIAKNGPDTERLPTSHTCFNVLLLPEYSSKEKLKERLLKAITYAKGFGML [UBE3A]”, in series [1], the “solubility change mitosis (log2)” value was -0.175. For the same sequence, the melting temperature in series [2] (cell cycle stage: G1/S) worked out at 52.8 °C; in series [2] (cell cycle stage: mitosis), 52 °C. Also, the thermal stability score in series [3] (setting [5]) was -0.231; in series [3] (cell cycle stage: mitosis), -0.936. For the same sequence, the “solubility in G1/S (log2)” value in series [4] was -0.0632.

As to “MEKTCIDALPLTMNSSEKQETVCIFGTGDFGRSLGLKMLQCGYSVVFGSRNPQKTTLLPSGAEVLSYSEAAKKSGIIIIAIHREHYDFLTELTEVLNGKILVDISNNLKINQYPESNAEYLAHLVPGAHVVKAFNTISAWALQSGALDASRQVFVCGNDSKAKQRVMDIVRNLGLTPMDQGSLMAAKEIEKYPLQLFPMWRFPFYLSAVLCVFLFFYCVIRDVIYPYVYEKKDNTFRMAISIPNRIFPITALTLLALVYLPGVIAAILQLYRGTKYRRFPDWLDHWMLCRKQLGLVALGFAFLHVLYTLVIPIRYYVRWRLGNLTVTQAILKKENPFSTSSAWLSDSYVALGILGFFLFVLLGITSLPSVSNAVNWREFRFVQSKLGYLTLILCTAHTLVYGGKRFLSPSNLRWYLPAAYVLGLIIPCTVLVIKFVLIMPCVDNTLTRIRQGWERNSKH [STEAP4]”, the “solubility change mitosis (log2)” value in series [1] is -0.115. Besides, the melting temperature in series [2] (cell cycle stage: G1/S) was found to be 60.3 °C; in series [2] (cell cycle stage: mitosis), 57.7 °C. Further, the thermal stability score in series [3] (setting [5]) is -2.95; in series [3] (cell cycle stage: mitosis), -3.54. Besides, in series [4], the “solubility in G1/S (log2)” value was -0.0287.

Take “MELGSCLEGGREAAEEEGEPEVKKRRLLCVEFASVASCDAAVAQCFLAENDWEMERALNSYFEPPVEESALERRPETISEPKTYVDLTNEETTDSTTSKISPSEDTQQENGSMFSLITWNIDGLDLNNLSERARGVCSYLALYSPDVIFLQEVIPPYYSYLKKRSSNYEIITGHEEGYFTAIMLKKSRVKLKSQEIIPFPSTKMMRNLLCVHVNVSGNELCLMTSHLESTRGHAAERMNQLKMVLKKMQEAPESATVIFAGDTNLRDREVTRCGGLPNNIVDVWEFLGKPKHCQYTWDTQMNSNLGITAACKLRFDRIFFRAAAEEGHIIPRSLDLLGLEKLDCGRFPSDHWGLLCNLDIIL [TDP2]”: the “solubility change mitosis (log2)” value in series [1] was -0.193. In addition, the melting temperature in series [2] (cell cycle stage: G1/S) came out at 49.7 °C; in series [2] (cell cycle stage: mitosis) it was 51.7 °C. The thermal stability score in series [3] (setting [5]) was -0.731; in series [3] (cell cycle stage: mitosis), -0.039. The “solubility in G1/S (log2)” value in series [4] was 0.116.

Consider “MELQPPEASIAVVSIPRQLPGSHSEAGVQGLSAGDDSELGSHCVAQTGLELLASGDPLPSASQNAEMIETGSDCVTQAGLQLLASSDPPALASKNAEVTGTMSQDTEVDMKEVELNELEPEKQPMNAASGAAMSLAGAEKNGLVKIKVAEDEAEAAAAAKFTGLSKEELLKVAGSPGWVRTRWALLLLFWLGWLGMLAGAVVIIVRAPRCRELPAQKWWHTGALYRIGDLQAFQGHGAGNLAGLKGRLDYLSSLKVKGLVLGPIHKNQKDDVAQTDLLQIDPNFGSKEDFDSLLQSAKKKSIRVILDLTPNYRGENSWFSTQVDTVATKVKDALEFWLQAGVDGFQVRDIENLKDASSFLAEWQNITKGFSEDRLLIAGTNSSDLQQILSLLESNKDLLLTSSYLSDSGSTGEHTKSLVTQYLNATGNRWCSWSLSQARLLTSFLPAQLLRLYQLMLFTLPGTPVFSYGDEIGLDAAALPGQPMEAPVMLWDESSFPDIPGAVSANMTVKGQSEDPGSLLSLFRRLSDQRSKERSLLHGDFHAFSAGPGLFSYIRHWDQNERFLVVLNFGDVGLSAGLQASDLPASASLPAKADLLLSTQPGREEGSPLELERLKLEPHEGLLLRFPYAA [SLC3A2]”, for which, in series [1], the “solubility change mitosis (log2)” value is -0.0187. Also, the melting temperature in series [2] (cell cycle stage: G1/S) came to 59.8 °C; in series [2] (cell cycle stage: mitosis), 60.5 °C. Moreover, the thermal stability score in series [3] (setting [5]) was -2.05; in series [3] (cell cycle stage: mitosis) it was -1.32. For the same sequence, in series [4], the “solubility in G1/S (log2)” value turned out to be 0.345.

For “MELRVGNKYRLGRKIGSGSFGDIYLGANIASGEEVAIKLECVKTKHPQLHIESKFYKMMQGGVGIPSIKWCGAEGDYNVMVMELLGPSLEDLFNFCSRKFSLKTVLLLADQMISRIEYIHSKNFIHRDVKPDNFLMGLGKKGNLVYIIDFGLAKKYRDARTHQHIPYRENKNLTGTARYASINTHLGIEQSRRDDLESLGYVLMYFNLGSLPWQGLKAATKRQKYERISEKKMSTPIEVLCKGYPSEFSTYLNFCRSLRFDDKPDYSYLRQLFRNLFHRQGFSYDYVFDWNMLKFGAARNPEDVDRERREHEREERMGQLRGSATRALPPGPPTGATANRLRSAAEPVASTPASRIQPAGNTSPRAISRVDRERKVSMRLHRGAPANVSSSDLTGRQEVSRIPASQTSVPFDHLGK [CSNK1E]”, the “solubility change mitosis (log2)” value in series [1] turned out to be 0.102. Further, the values for the melting temperature in series [2] (cell cycle stage: G1/S) and in series [2] (cell cycle stage: mitosis) were 49.7 °C and 49 °C, respectively. Further, the thermal stability score in series [3] (setting [5]) is 0.572; in series [3] (cell cycle stage: mitosis) it was 0.264. Further, in series [4], the “solubility in G1/S (log2)” value was -0.212.

Consider “MELSAVGERVFAAEALLKRRIRKGRMEYLVKWKGWSQKYSTWEPEENILDARLLAAFEEREREMELYGPKKRGPKPKTFLLKAQAKAKAKTYEFRSDSARGIRIPYPGRSPQDLASTSRAREGLRNMGLSPPASSTSTSSTCRAEAPRDRDRDRDRDRERDRERERERERERERERERERGTSRVDDKPSSPGDSSKKRGPKPRKELPDPSQRPLGEPSAGLGEYLKGRKLDDTPSGAGKFPAGHSVIQLARRQDSDLVQCGVTSPSSAEATGKLAVDTFPARVIKHRAAFLEAKGQGALDPNGTRVRHGSGPPSSGGGLYRDMGAQGGRPSLIARIPVARILGDPEEESWSPSLTNLEKVVVTDVTSNFLTVTIKESNTDQGFFKEKR [CBX8]”, for which the “solubility change mitosis (log2)” value in series [1] is 0.612. Also, the melting temperature amounted to 46.1 °C in series [2] (cell cycle stage: G1/S) and 49.5 °C in series [2] (cell cycle stage: mitosis). Moreover, the results for the thermal stability score in series [3] (setting [5]) and in series [3] (cell cycle stage: mitosis) were 2.83 and 5.27, respectively. In addition, the “solubility in G1/S (log2)” value in series [4] is -0.615.
